The experiment has as its target SARS-CoV-2 RBD protein (SARS-CoV-2 (Wuhan-Hu-1, NC_045512), UniProt P0DTC2). Briefly: BLI.

B1: monoclonal antibody 7F3 (antibody, V domains shown)
VH: EVQLVESGGGLVKPGRSLRLSCTASGFTFGDYAMSWFRQAPGKGLEWVGFIRSKAYGGTTEYAASVKGRFTISRDDSKSIAYLQMNSLKTEDTAVYYCTRDRYARYDILTGLSPAGADYFYYAMDVWGQGTTVTVSS
VL: EIVLTQSPATLSLSPGERATLSCRASQSVSSYLAWYQQKPGQAPRLLIYDASNRATGIPARFSGSGSGTDFTLTISSLEPEDFAVYYCQQRSNWPQYTFGQGTKLEIK
A word on the Kd: it is the concentration at which binding is half-saturated. Turning to B1, the affinity, expressed as Kd, was 0.69 ± 0.03 nM.

B2: monoclonal antibody 4L12 (antibody, V domains shown)
VH: EVQLVESGGGLVQPGGSLRLSCAASGITVSSNYMNWVRQAPGRGLEWVSLLYSGGSTYYADSVKGRFTISRDNSKNTLYLQMNSLRAEDTAVYYCARDLITYGMDVWGQGTTVTVSS
VL: AIQLTQSPSSLSASVGDRVTITCRASQGISSYLAWYQQKPGKAPKLLIYAASTLQSGVPSRFSGSGSGTDFTLTISSLQPEDFATYYCQQLNSYPPLTFGGGTKVEIK
In turn, B2 registered a Kd of 1.49 ± 0.06 nM.

The record behind these values is article doi:10.1101/2020.10.08.20209114 (medRxiv, 2020).
